Reference: patent US20240010735A1 (EISAI R AND D MANAGEMENT, published 2024)

Legend:
Test in all cases: ELISA: SEAP-His proteins (1 nM) captured on anti-6-His antibody, antibody A 10 µg/mL with human IgG 100 µg/mL, HRP anti-mouse IgG, OD450 as % of human EphA4-SEAP-His
[1] = target: T1, human EphB6 extracellular region-SEAP-His protein (human, UniProt O15197 32-594)
T1 construct: extracellular domain; also called Eph receptor extracellular region-SEAP-His protein; not shown: secretory alkaline phosphatase (SEAP); histidine tag
T1 sequence (looked up): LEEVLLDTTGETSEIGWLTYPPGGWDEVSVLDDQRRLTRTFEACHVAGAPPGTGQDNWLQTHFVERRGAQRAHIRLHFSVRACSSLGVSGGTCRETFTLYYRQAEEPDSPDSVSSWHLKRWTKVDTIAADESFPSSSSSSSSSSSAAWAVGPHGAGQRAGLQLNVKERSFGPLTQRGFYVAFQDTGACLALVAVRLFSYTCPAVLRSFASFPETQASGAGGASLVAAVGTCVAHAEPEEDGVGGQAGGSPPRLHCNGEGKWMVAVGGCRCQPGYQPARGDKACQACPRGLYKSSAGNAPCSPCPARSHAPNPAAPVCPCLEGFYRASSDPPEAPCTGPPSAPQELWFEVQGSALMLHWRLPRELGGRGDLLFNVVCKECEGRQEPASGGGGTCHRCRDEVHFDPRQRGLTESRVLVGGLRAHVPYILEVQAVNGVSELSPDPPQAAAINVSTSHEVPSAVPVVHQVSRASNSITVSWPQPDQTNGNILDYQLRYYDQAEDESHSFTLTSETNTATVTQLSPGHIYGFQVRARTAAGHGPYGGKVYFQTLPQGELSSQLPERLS
Protocol: (§1) Rabbit anti-6-His antibodies (Bethel Laboratories) were coated onto the wells of a 96-well plate (Nunc). After incubating at 4° C. overnight, the wells were blocked at room temperature for 1 hour by 1% Block Ace (DS Pharma Biomedical). After washing 3 times with 0.05% Tween 20/PBS (Thermo […]), each Eph receptor of human extracellular region-SEAP-His protein (final concentration 1 nM) was seeded into each well, and incubated at room temperature for 1 hour. After washing 3 times, human IgG solution (100 μg/mL, Mitsubishi Pharma Corporation) and antibody A (10 μg/mL) were supplemented to the wells, and incubated at room temperature for 1 hour. Horseradish peroxidase-labeled donkey anti-mouse IgG antibody (Jackson ImmunoResearch Laboratories) was added, and incubated at room, temperature for 1 hour. After washing 3 times, TMBZ (3,3′,5,5′-tetramethylbenzidine, Sigma) solution was added to the wells, and upon confirmation of modest coloring, an equal amount of quenching solution (1 N H₂SO₄, Wako Pure Chemicals) was added to the wells, and absorbance at 450 nm was read by a microplate reader (PerkinElmer).

[2] = target: T2, human EphA3 extracellular region-SEAP-His protein (human, UniProt P29320 21-541)
T2 construct: extracellular domain; also called Eph receptor extracellular region-SEAP-His protein; not shown: secretory alkaline phosphatase (SEAP); histidine tag
T2 sequence (looked up): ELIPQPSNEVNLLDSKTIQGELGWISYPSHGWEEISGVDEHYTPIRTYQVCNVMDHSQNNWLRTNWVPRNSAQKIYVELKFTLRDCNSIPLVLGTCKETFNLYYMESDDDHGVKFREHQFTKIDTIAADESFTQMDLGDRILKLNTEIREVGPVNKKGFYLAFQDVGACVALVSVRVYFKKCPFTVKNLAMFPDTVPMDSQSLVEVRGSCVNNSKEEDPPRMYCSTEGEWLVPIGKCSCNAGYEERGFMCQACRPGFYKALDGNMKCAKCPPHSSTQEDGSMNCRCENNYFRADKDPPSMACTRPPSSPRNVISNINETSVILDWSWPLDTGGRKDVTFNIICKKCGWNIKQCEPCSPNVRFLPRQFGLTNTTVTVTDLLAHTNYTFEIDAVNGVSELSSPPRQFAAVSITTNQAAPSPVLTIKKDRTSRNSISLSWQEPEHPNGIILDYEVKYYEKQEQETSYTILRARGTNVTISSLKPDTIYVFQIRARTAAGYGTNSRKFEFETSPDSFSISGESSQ
Protocol: as §1

[3] = target: T3, human EphA2 extracellular region-SEAP-His protein (human, UniProt P29317 24-537)
T3 construct: extracellular domain; also called Eph receptor extracellular region-SEAP-His protein; not shown: secretory alkaline phosphatase (SEAP); histidine tag
Protocol: as §1

[4] = target: T4, human EphB3 extracellular region-SEAP-His protein (human, UniProt P54753 34-559)
T4 construct: extracellular domain; also called Eph receptor extracellular region-SEAP-His protein; not shown: secretory alkaline phosphatase (SEAP); histidine tag
T4 sequence (looked up): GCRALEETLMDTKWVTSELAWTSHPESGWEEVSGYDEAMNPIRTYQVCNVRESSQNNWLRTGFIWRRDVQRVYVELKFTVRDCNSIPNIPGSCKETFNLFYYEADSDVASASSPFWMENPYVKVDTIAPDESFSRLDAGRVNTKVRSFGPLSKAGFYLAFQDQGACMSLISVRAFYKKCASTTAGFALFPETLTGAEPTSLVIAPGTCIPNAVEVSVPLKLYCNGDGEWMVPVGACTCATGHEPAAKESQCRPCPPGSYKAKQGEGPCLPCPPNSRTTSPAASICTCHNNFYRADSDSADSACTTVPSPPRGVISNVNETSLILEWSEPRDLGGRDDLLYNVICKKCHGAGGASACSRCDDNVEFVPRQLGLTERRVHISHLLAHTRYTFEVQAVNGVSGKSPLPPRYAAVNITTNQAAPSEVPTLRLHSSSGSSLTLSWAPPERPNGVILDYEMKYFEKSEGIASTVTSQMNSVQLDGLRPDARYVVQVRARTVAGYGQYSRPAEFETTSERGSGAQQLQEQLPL
Protocol: as §1

Measured: binding result

T3 sequence (P29317 24-537): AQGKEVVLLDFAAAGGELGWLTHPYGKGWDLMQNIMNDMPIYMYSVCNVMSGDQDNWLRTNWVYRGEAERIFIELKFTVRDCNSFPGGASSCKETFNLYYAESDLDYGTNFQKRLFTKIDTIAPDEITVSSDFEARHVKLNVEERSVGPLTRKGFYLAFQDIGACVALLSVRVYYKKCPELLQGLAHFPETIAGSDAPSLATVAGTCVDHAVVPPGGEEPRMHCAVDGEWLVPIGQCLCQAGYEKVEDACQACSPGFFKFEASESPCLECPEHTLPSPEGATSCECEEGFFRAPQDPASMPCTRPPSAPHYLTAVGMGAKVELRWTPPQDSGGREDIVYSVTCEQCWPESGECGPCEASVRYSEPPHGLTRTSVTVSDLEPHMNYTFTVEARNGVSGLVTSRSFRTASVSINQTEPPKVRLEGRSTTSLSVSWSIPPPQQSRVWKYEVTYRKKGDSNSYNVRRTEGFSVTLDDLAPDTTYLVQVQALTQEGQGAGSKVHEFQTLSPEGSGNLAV

B1: mouse anti-EphA4 monoclonal antibody (antibody A) (antibody, mouse IgG1, kappa, V domains shown)
VH: QVQLKQSGPSLVQPSQSLSITCTVSGFSLTRYGVHWVRQSPGKGLEWLGVIWRGGSTDYNAAFMSRLSITKDNSKSQVFFKMNSLQADDTAIYYCAKESLFGVYYDYGYYSMDYWGQGTSVTVSS
VL: DIQMTQSPSSLSASLGERVSLTCRASQEISGYLSWLQQKPDGTIKRLIYAASTLDSGVPKRFSGSRSGSDYSLTISSLESEDFADYYCLQYASYPLTFGAGTKLELKR
notes: purified from hybridoma supernatant
no binding (tested: 10 µg/mL): all assays above
